# Results from the RNAGym collection of RNA variant scans (doi:10.7554/elife.80360).
# B1: HDV Ribozyme (parent)
# chain: GGCCGGCAUGGUCCCAGCCUCCUCGCUGGCGCCGGCUGGGCAACAUUCCGAGGGGACCGUCCCCUCGGUAAUGGCGAAUGGGACCCA
# Variants of: B1
# Assay: self-cleavage, relative activity (ratio to wild type); higher = more cleavage; co-transcriptional
row,Variant,self-cleavage
1,G39C A78C,0.125
2,G25U G50C,0.136
3,G34C A56G,0.142
4,C62A A70G,0.682
5,C21U U69A,0.148
6,C32A C84A,0
7,C13A C30U,0.181
8,C13U C18G,0.0332
9,G2U G52U,0.055
10,A16G A51C,1.05
11,C30U G50C,0.677
12,G50U G76U,1.04
13,A56U A70C,0.811
14,C30G C84U,0.0268
15,C15U C49G,0.485
16,G17U A51C,0.831
17,A42G C57G,0.453
18,G17U G50C,0.496
19,C19A G38A,0.125
20,C22U G40C,0.166
21,A78G,0.75
22,C18A C32U,0.145
23,G10A U12C,0.188
24,C33A U46G,0.0615

row,Variant,self-cleavage
1,U12G G54C,0.831
2,U65A A77U,0.72
3,C49G A78G,0.266
4,C15A G34C,0.256
5,A45G C86U,0.806
6,G1U U79G,0.539
7,G5C U9A,0.138
8,C7G U69G,0.293
9,C3U C36A,0.132
10,U47G C57U,0.985
11,G2A G52A,0.143
12,G6A U72C,0.219
13,G2A C63U,0.162
14,G25U C62A,0.138
15,G34A G53A,0.174
16,G38U A83G,0.0866
17,C3A U46A,0.148
18,G38U C61A,0.248
19,G1C G11C,0.131
20,G38C C66G,0.203
21,G35C A45G,0.237
22,C26U C30A,0.816
23,G29A C44U,0.151
24,C18A G25U,0.162

row,Variant,self-cleavage
1,C48A U79C,0.514
2,C75A G76U,0.289
3,A8C U72C,0.185
4,G38U A42C,0.0941
5,G11U A77U,0.0906
6,C15A G67A,0.499
7,C22A C44U,0.0282
8,C3U C32U,0.338
9,C21A A83U,0.0739
10,G28A C30A,0.149
11,G5A C49G,0.237
12,G28U A51U,0.166
13,C22A U23C,0.0978
14,G39C C57G,0.415
15,C44G G52U,0.727
16,G2C C63U,0
17,U27A G73U,0.261
18,G11C G29U,0.0225
19,G68C A71C,0.554
20,G40A G54A,1.04
21,G2U A56G,0.0674
22,U12G U69C,1.35
23,C57A G82U,0.585
24,C7U U12C,0.237

row,Variant,self-cleavage
1,A16G C21G,0.0875
2,U23C G68A,0.87
3,G35U G40U,0.12
4,C66U C86G,0.772
5,C24U A70G,0.706
6,G80C C86U,0.3
7,G38A C49G,0.151
8,C57U C63G,1.12
9,G11U C44U,0.193
10,C41U A70G,0.876
11,A45C A83C,0.0615
12,G39U C66A,0.739
13,G10A G38U,0.0923
14,U27G G53A,0.923
15,U12A C13U,0.0978
16,U12G C58A,0.962
17,G29C C57U,0.0604
18,G38C U60A,0.38
19,G34A U47G,0.0791
20,G5U C33A,0.898
21,C4U G38C,0.116
22,G39C C57U,0.345
23,G40C C61G,0.241
24,U20G G81C,0.095

row,Variant,self-cleavage
1,C36U G50U,0.841
2,C26A,1.01
3,A8G A56U,0.831
4,G28C U65A,0.104
5,C32G G38U,0.089
6,G17C A77U,0
7,C32U U46A,0.573
8,G17C U47C,0.519
9,C18U U46G,0.277
10,C7G C48U,0.262
11,A8U G68A,0.511
12,G17C G76C,0.499
13,G31U C32A,0.111
14,G31C U72G,0.128
15,U12G G67C,0.962
16,A8G G67C,0.665
17,U46A A87C,0.744
18,U65G C85U,0.831
19,C15A G68C,0.458
20,G2U A42G,0.0767
21,G34A C49G,0.155
22,G40A C58G,1.02
23,C19A C62G,0.104
24,C61U C85U,0.917

row,Variant,self-cleavage
1,C26U G67A,0.947
2,G29A G54U,0.119
3,G81U A83U,0.126
4,C36G G73C,0.185
5,U72G A83C,0.332
6,U23A A87C,1
7,G5U G28U,0.115
8,C3U C85U,0.626
9,G25A U65C,0.208
10,C62A G73U,0.212
11,C21A A77U,0
12,A8U C64G,0.856
13,U27G A42U,0.229
14,G67C G74U,0.332
15,A42C A83U,0.122
16,A42G C84A,0.554
17,C24G G74A,0.124
18,C44A G74C,0.237
19,C44A C86A,1.08
20,G17U A56U,0.533
21,A42U C86A,0.492
22,U12C C36U,0.107
23,C36G G68C,0.17
24,C4U A45U,0.458

row,Variant,self-cleavage
1,C33U G59U,0.855
2,C33U G80A,0.12
3,G10C C18U,0.396
4,G25A U47G,0.32
5,G2A G6A,0.0563
6,C14G G81C,0.974
7,C3U G82U,0.332
8,G29C C62A,0
9,G38A A77G,0.0852
10,G11C A78G,0.229
11,G25C G31U,0.214
12,G50U U69C,0.962
13,U23A C49U,1.13
14,C13G G52U,0
15,U79A G80U,0.148
16,A16G G52A,0.975
17,C32U G52A,0.805
18,C44A U60A,0.867
19,G31A C58G,0.393
20,G40C C86U,0.372
21,C7A A87U,0.505
22,C49G G52C,0.287
23,C14A G73C,0.104
